The source of these data is the RNAGym collection of RNA variant scans (doi:10.7554/elife.80360).

The chains are these.
B1: HDV Ribozyme (parent)
chain: GGCCGGCAUGGUCCCAGCCUCCUCGCUGGCGCCGGCUGGGCAACAUUCCGAGGGGACCGUCCCCUCGGUAAUGGCGAAUGGGACCCA

The variants in the series derive from B1. Kind of series: self-cleavage, relative activity (ratio to wild type); higher = more cleavage; co-transcriptional.
Regarding C4U A83G, the self-cleavage was determined as 0.464.

Regarding G5U C15G, the self-cleavage turned out to be 0.

Regarding G5U C75G, the self-cleavage turned out to be 0.246.

With A70G G82C, the self-cleavage is 0.259.

With C41G C86G, the self-cleavage was 0.914.

As for C14G G82C, the self-cleavage was found to be 0.525.

G10U A77G: the self-cleavage was 0.424.

In the case of G55C G76C, the self-cleavage was found to be 0.943.

Regarding A77U A87U, the self-cleavage was 0.785.

Turning to U23G G38C, the self-cleavage was 0.095.

As to C7A G76C, the self-cleavage turned out to be 0.988.

As to C22A C48U, the self-cleavage was found to be 0.433.

Turning to G29A A71U, the self-cleavage stood at 0.0615.

Turning to U12C A87C, the self-cleavage was found to be 0.479.

G29U A87U: the self-cleavage was found to be 0.111.

Regarding G6U G82C, the self-cleavage was 0.17.

For the variant U27A C49A, the self-cleavage is 0.831.

In the case of C4A A51C, the self-cleavage came out at 0.277.

Take G11A C49G: the self-cleavage came out at 0.156.

For the variant C22G A42C, the self-cleavage stood at 0.185.

On to G1A U23C, for which the self-cleavage came to 0.

U12G G80U: the self-cleavage is 0.534.

As to C14U G31C, the self-cleavage came out at 0.342.

A51C G73U: the self-cleavage is 0.567.

As to U9A G28U, the self-cleavage came to 0.0898.

Take G39A C48A: the self-cleavage was 0.609.

C21A: the self-cleavage came to 0.0856.

With G50U U69A, the self-cleavage is 0.872.

For G29C G59C, the self-cleavage is 0.123.

G1U G38C: the self-cleavage amounted to 0.369.

Take A45C C85U: the self-cleavage amounted to 0.437.

With U9G C57A, the self-cleavage was found to be 0.831.

C7A U72G: the self-cleavage was 0.

Take A8C C61U: the self-cleavage worked out at 0.643.

Take C13U A51C: the self-cleavage is 0.997.

As for C22G G73A, the self-cleavage stood at 0.0692.

As for U37G G53U, the self-cleavage was 0.157.

With G28U G74C, the self-cleavage worked out at 0.0992.

Regarding C4A G54U, the self-cleavage is 0.32.

Regarding C19G C62A, the self-cleavage stood at 0.0264.

Turning to C36G A51U, the self-cleavage worked out at 0.0519.

G11U U27C: the self-cleavage worked out at 0.388.

For G39A G76C, the self-cleavage came to 0.57.

For C21A A87C, the self-cleavage was found to be 0.0742.

With U20C A83U, the self-cleavage is 0.

In the case of U46C A71C, the self-cleavage was 0.772.

Turning to U46C G67C, the self-cleavage was determined as 0.469.

Consider C4U U27C, for which the self-cleavage turned out to be 0.166.

Consider G54U G82C, for which the self-cleavage stood at 0.237.

Consider U9G C33A, for which the self-cleavage worked out at 0.293.

As to G74A G80U, the self-cleavage was 0.124.

With U20C U23G, the self-cleavage is 0.

In the case of G80A C86U, the self-cleavage came to 0.409.

With G28U G31C, the self-cleavage came out at 0.189.

Regarding G17U G35U, the self-cleavage is 0.198.

For the variant G34A A51G, the self-cleavage came to 0.0504.

For G35U G76A, the self-cleavage came to 0.404.

As for U20G G54C, the self-cleavage is 0.571.

C62A C86A: the self-cleavage stood at 1.01.

On to G29U C62A, for which the self-cleavage worked out at 0.0773.

On to G17C G25A, for which the self-cleavage was determined as 0.131.

In the case of C21U C75U, the self-cleavage turned out to be 0.0248.

In the case of A16U A43C, the self-cleavage worked out at 0.32.

For C22G G54A, the self-cleavage came out at 0.101.

Consider C26G A71C, for which the self-cleavage stood at 0.85.

Take G1C C61G: the self-cleavage is 0.0504.

Regarding G1U C44A, the self-cleavage came out at 0.479.

For the variant G81A G82U, the self-cleavage is 0.225.

Consider G52C G55U, for which the self-cleavage is 0.966.

For C58A A83C, the self-cleavage came to 0.723.

In the case of G25A C26U, the self-cleavage worked out at 0.339.

Turning to G29U C63A, the self-cleavage was determined as 0.106.

On to C19U C62A, for which the self-cleavage is 0.142.

On to G28U G53A, for which the self-cleavage was found to be 0.0801.

On to U46C G53A, for which the self-cleavage is 0.796.

Regarding U27G C86U, the self-cleavage is 1.15.

As for C48U A71C, the self-cleavage came out at 0.789.

Consider C22U G34A, for which the self-cleavage turned out to be 0.0468.

Turning to G5U U65G, the self-cleavage came to 0.475.

Turning to U37C U46G, the self-cleavage is 0.787.

In the case of G10U C62G, the self-cleavage is 0.641.

A56G C62U: the self-cleavage amounted to 0.912.

In the case of U9C A71C, the self-cleavage was found to be 0.791.

As to C24U U65G, the self-cleavage is 0.435.

As for C62G G81U, the self-cleavage turned out to be 0.133.

Take G6A A87C: the self-cleavage came to 0.635.

For C21U C57G, the self-cleavage came to 0.196.

Regarding U65C U69G, the self-cleavage stood at 1.03.

For the variant G25C G39U, the self-cleavage amounted to 0.0978.

In the case of G67A U69G, the self-cleavage turned out to be 0.776.

For the variant U60G U79G, the self-cleavage amounted to 0.831.

On to G40A C75U, for which the self-cleavage stood at 0.157.

In the case of C15G G53U, the self-cleavage turned out to be 0.724.

Regarding C14U A77C, the self-cleavage was found to be 0.249.

For the variant C21G G28C, the self-cleavage was 0.0755.

On to U27G C48G, for which the self-cleavage stood at 0.923.

On to U12A C26G, for which the self-cleavage is 0.609.

On to A43C A71G, for which the self-cleavage was 0.762.

In the case of C33G U60G, the self-cleavage is 0.217.

As for C41G C57U, the self-cleavage was found to be 1.04.

Regarding C48A A71G, the self-cleavage stood at 0.791.

On to C15A G52A, for which the self-cleavage is 0.708.

Take G5U U46C: the self-cleavage turned out to be 0.

Regarding G10A U65C, the self-cleavage came to 0.769.

For C58A G81U, the self-cleavage came to 0.397.

In the case of G2C A16G, the self-cleavage stood at 0.131.

On to C57G C75U, for which the self-cleavage is 0.271.

As for G28A A45U, the self-cleavage amounted to 0.128.

On to C26G A56C, for which the self-cleavage was 1.25.

As to G29A G39U, the self-cleavage stood at 0.0432.

Take U23C U37G: the self-cleavage was 0.266.

Turning to C4U G35U, the self-cleavage stood at 0.162.

For G1C A16U, the self-cleavage worked out at 0.111.

In the case of C44A G68C, the self-cleavage is 0.764.

Consider C44A G68U, for which the self-cleavage is 0.554.

As for G53U G76C, the self-cleavage came out at 1.11.

As to U47C C61A, the self-cleavage came out at 0.872.

As to G34U G82C, the self-cleavage is 0.138.

In the case of U12C A77C, the self-cleavage was found to be 0.237.

On to G34C C75G, for which the self-cleavage was 0.131.

As to G17U A43C, the self-cleavage is 0.203.

Consider C32G C62U, for which the self-cleavage is 0.117.

With U9C G54A, the self-cleavage came out at 1.08.

For the variant G50C U60C, the self-cleavage turned out to be 1.13.

As for C18A C30U, the self-cleavage was 0.

G38A A51C: the self-cleavage was 0.212.

In the case of G34A G39A, the self-cleavage came to 0.198.

On to G6A C58U, for which the self-cleavage was 0.702.

For G2U A43U, the self-cleavage amounted to 0.0866.

Turning to C44A C61A, the self-cleavage stood at 0.618.

Regarding C21G C26G, the self-cleavage came to 0.0723.

As for C15U G59C, the self-cleavage was determined as 1.13.

For the variant U9G A45G, the self-cleavage was found to be 0.684.

As to G39C G55C, the self-cleavage came out at 0.31.

Turning to C3G C19U, the self-cleavage was 0.158.

For U37C C85G, the self-cleavage is 0.95.

Consider U47G G54U, for which the self-cleavage was found to be 1.07.

On to G74C C84A, for which the self-cleavage was 0.177.

As to G34U G81U, the self-cleavage was 0.18.

On to C44G U46G, for which the self-cleavage came to 0.609.

Take C75A G81A: the self-cleavage was 0.151.

With U9G U46A, the self-cleavage was 0.312.

On to C4G C33A, for which the self-cleavage was determined as 0.

On to G10A G52U, for which the self-cleavage stood at 0.838.

With G17U U72A, the self-cleavage amounted to 0.119.

As for C26G G28U, the self-cleavage was 0.0396.

Regarding U20G G80C, the self-cleavage was found to be 0.0519.

Consider C24G A77C, for which the self-cleavage turned out to be 0.0386.

On to A71U G80A, for which the self-cleavage was determined as 0.175.

As to G38C C58A, the self-cleavage is 0.361.

Consider G35A G38A, for which the self-cleavage was determined as 0.0923.

Turning to C48A C49G, the self-cleavage is 1.01.

Regarding C24G G76C, the self-cleavage came to 0.219.

As for C19U U37C, the self-cleavage amounted to 0.185.

In the case of C49A U72C, the self-cleavage turned out to be 0.32.

Regarding G40A G59U, the self-cleavage amounted to 0.987.

In the case of A42C U47A, the self-cleavage is 0.0594.

As for G11C G25A, the self-cleavage came out at 0.0449.

Consider C26U G52C, for which the self-cleavage is 0.9.

With C21G C61A, the self-cleavage worked out at 0.

Consider U9C C44U, for which the self-cleavage turned out to be 0.739.

C24G C48U: the self-cleavage was determined as 0.14.

Take C57U C86U: the self-cleavage worked out at 0.991.

As to C36G U65A, the self-cleavage amounted to 0.244.

Regarding C3A C15A, the self-cleavage came to 0.306.

For G53A C58A, the self-cleavage amounted to 0.962.

On to G29A G80C, for which the self-cleavage came out at 0.145.
